The results in this text go back to PMC4715562.

This assay concerns the target Gp7-MyH7-1526-1571 (bacteriophage φ29 | human). The assay is described as follows: crystal structure.

For orientation: stoichiometry N means a count of units in the complex or per binding partner. For Gp7-MyH7-1526-1571 (domain or fragment), the stoichiometry N was determined as 2.
